Test results from publication PMC7413259, “Identification of the viral RNA promoter stem loop A (SLA)-binding site on Zika virus polymerase NS5”.

Tests used:
[1] = biological target: ZIKV NS5 MTase domain WT (Zika virus, UniProt A0A142I5B9 2521-2785); assay: fluorescence anisotropy; buffer B2; B1: 50 mM Tris-HCl pH 8.0, 150 mM NaCl, 1 mM MgCl2, 2 mM beta-mercaptoethanol, 10% glycerol, 20 C; B2: same with 100 mM NaCl, 20 C; settings: protein: recombinant; tags: N-terminal His6; label: etheno-A fluorescence; single strand
[2] = biological target: ZIKV NS5 WT (Zika virus, UniProt A0A024B7W1 2521-3423); assay: fluorescence titration; buffer B1; B1: 50 mM Tris-HCl pH 8.0, 150 mM NaCl, 1 mM MgCl2, 2 mM beta-mercaptoethanol, 10% glycerol, 20 C; B2: same with 100 mM NaCl, 20 C; settings: protein: recombinant; tags: N-terminal His6-SUMO, cleaved; label: etheno-A fluorescence; single strand

## AAAAAAAAAAAAAAAAAAAA (ssRNA, all A etheno-modified (1,N6-ethenoadenosine)) [epsilonA(p-epsilonA)19 20-mer ssRNA]
[1]
  Kd: 910 nM
[2]
  Kd: 500 nM
